# Results as given in the nanobody polyreactivity screen of Harvey et al. (2022).
# Experiment: yeast display, Sf9 membrane polyspecificity reagent, FACS + sequencing; frameworks hold sequencing errors
# Procedure, shortened: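 Polyreactivity labels are assigned by the sorting gate from which each nanobody was recovered. The gates were low and high (top ~1%), set on anti-HA fluorescence for expression and streptavidin fluorescence for reagent binding. Before sorting, galactose-induced (36–48 hours) yeast display cells were stained for 1 hour at 4 °C with 10% biotinylated, detergent-solubilized Sf9 membrane reagent.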
row,Sequence,polyreactivity (PSR sort gate)
1,QVQLVESGGGLVQAGGSLRLSCAASGFTLYPYAMGWYRPAPGKERELVAAISGSGGSTYYADSVKGRFTISRDNAKNTVYLQMNSLKPEDTAVYYCAARGPQQWWWDDDYWGQGTQVTVSS,high polyreactivity
2,QVQLVESGGGLVQAGGSLRLSCAASGFTLYSYAMGWYRQAPGKERELVAAIRRRGASTYYADSVKGRFTISRDNAKNTVYLQMNSLKPEDTAVYYCAADAKYPDDDYWGQGTQVTVSS,high polyreactivity
3,QVQLVESGGGLVQAGGSLRLSCAASGFTLYSYAMGWYRQAPGKETELVAAITRSGGITYYADSVKGRFTISRDNAKNTVYLQMNSLKPEDTAVYYCAALYLATGVDKAFDSWGQGTQVTVSS,high polyreactivity
4,QVQLVESGGGLVQAGGSLRLSCAASGFTLYTYAMGWYRQAPGKERELVAAISTGGGRTYYADSVKGRFTISRDNAKNTVYLQMNSLKPEDTAVYYCAADSLAKTGGTVGGDYWGQGTQVSVSS,high polyreactivity
5,QVQLVESGGGLVQAGGSLRLSCAASGFTNAMGWYRQAPGKERELVAAISYSGDSTNYADSVKGRFTISRDNAKNTVYLQMNSLKPEDSAVYYCNASSPYDYDWGQGTQVTVSS,low polyreactivity
6,QVQLVESGGGLVQAGGSLRLSCAASGFTSHSYAMGWYRKAPGKERELVAAINGDGGSTYYADSVKGRFTISRDNAKNTLYLQMNSLKPEDTAVYYCAAETAYWYYWGQGSQVTVSS,high polyreactivity
7,QVQLVESGGGLVQAGGSLRLSCAASGFTSSNNAMGWYRQAPGKERELFAAISSSGGRTYYADSVKGRFTISRDNAKNTVYLQMNSLQPEDTAVYFCAATGYVGGIYGHYPRGYWGQGTQVTVSS,high polyreactivity
8,QVQLVESGGGLVQAGGSLRLSCAASGFTSTAYAMGWYRQAPGKERELVAVISSGSSTHYADSVKGRFTISRDNAKNTVYLQMNSLKPEDTAVYYCAARIRTRYFTGFYYWGQGTQVTVSS,high polyreactivity
9,QVQLVESGGGLVQAGGSLRLSCAASGFTSTINAMGWYRQAPGKERELVAAISVSSGSTYYADSVKGRFTISRDNAKNTVYLQMNSLKPEDTAVYYCATGISRDYIYIILRYDYWGQGTQVTVSS,low polyreactivity
10,QVQLVESGGGLVQAGGSLRLSCAASGFTSWQYAMGWYRQAPGKERELVAAISVSGASTNYADSVRGRFTISRDNAKNTVYLQMNSLKPEETAVYYCAAAYVRYPTTRYYYWGQGTQVTVSS,high polyreactivity
11,QVQLVESGGGLVQAGGSLRLSCAASGFTSYGYAMGWYRQAPGKERELVAAISRSGGSTYYADSVKGRFTISRDNAKNTVYLQMNSLKPEDTAVYYCAVAVGREYVYRYYYWGQGTQVTVSS,high polyreactivity
12,QVQLVESGGGLVQAGGSLRLSCAASGFTVVSYAMGWYRQAPGKERELVAAITYSGTSTYYADSVKGRFTISRDKAKNTVYLQMNSLKPEDTAVYYCNADSSWVPIWYEYDYWGHGTQVTVSS,low polyreactivity
13,QVQLVESGGGLVQAGGSLRLSCAASGFTVYYYALGWYRQAPGKERELVAAISDSGGITSYADSVKGRFTISRDNAKNTVYLQMNSLKPEDTAVYYCAYIFGWSSSSKSYYYWGQGTQVTVSS,low polyreactivity
14,QVQLVESGGGLVQAGGSLRLSCAASGFTYDLNAMGWYRQAPGKEREFVATISQSTGSTYYADSVKGRFTISRDNAKNTVYLQMNSLKPEDTAVYYCNKDRPYTLTWGLYEYWGQGTQVTVSS,low polyreactivity
15,QVQLVESGGGLVQAGGSLRLSCAASGFTYGYYAMGGYRQAPGKERELVAAITNGGRTNYADSVKGRFTISRDNAKNTVYLQMNSLKPEDTAVYYCATDHYWSREGYWGQGTQVTVSS,low polyreactivity
16,QVQLVESGGGLVQAGGSLRLSCAASGFTYVYNAMGWYRQAPGTERELVAAISSGGSTYYADSVKGRFTISRDNAKYTVYLQMNSLKPEDTAVYYCARRSSWFKYEYWGQGTQVTVSS,low polyreactivity
17,QVQLVESGGGLVQAGGSLRLSCAASGFVWNAMGWYRPAPGTERELVAAINWRGGSTNYADSVKGRFTISRDNAKNTVYLQMNSLKPEDTAVYYCAAYFFHYHFYQAAYDYWGQGTQVTVSS,low polyreactivity
18,QVQLVESGGGLVQAGGSLRLSCAASGGIAGNTMGWYRQAPGKERELVAAITRSGGRTYYADSVKGRFTISRDNAKNTVYLQMNSLKPEDTAVYYCAVTGLVRRRYGYWGQGTQVTVSS,high polyreactivity
19,QVQLVESGGGLVQAGGSLRLSCAASGGIFARNVMGWYRQAPGKERELVAAISGSGGSTYYADSVKGRFTISRDNAKNTVYLQMNSLKPEDTAVYYCAARTPGVSVYKDGYWGQGTQVTVSS,low polyreactivity
20,QVQLVESGGGLVQAGGSLRLSCAASGGIFARNVMGWYRQAPGKERELVAAISGSGGSTYYADSVKGRFTISRDNAKNTVYLQMNSLKPEDTAVYYCAARTPGVSVYKDGYWGQGTQVTVTS,low polyreactivity
21,QVQLVESGGGLVQAGGSLRLSCAASGGIFAWNAMGWYRQAPGKERELVAAISGRGGSTTYADSVKGRFTISRDNAKNTVYLQMNSLKPEDTAVYYCAKRWYSGWYKYDYWGQGTQVTVSS,high polyreactivity
22,QVQLVESGGGLVQAGGSLRLSCAASGGIFAYYGMGWYRQAPGKERELVAAIWIGGNTYYADSVKGRFTISRDNAKNTVYLQMNSLKPVDTAVYYCATEGFVYSWLWEFEYWGQGTQVTVSS,low polyreactivity

row,Sequence,polyreactivity (PSR sort gate)
1,QVQLVESGGGLVQAGGSLRLSCAASGGIFDFYAMGWYRQAPGKERELVAAIRYGGSSTYYADSVKGRFTISRDNAKNTVYLLLNSLKPEDTAVYYCAAEPFSWDTWVDYDYWGQGTQVTVSS,low polyreactivity
2,QVQLVESGGGLVQAGGSLRLSCAASGGIFDTYVMGWYRQAPGKERELVAAITWSGGSTYYADSVKGRFTISRDNAKNTVYLQMNSLKPEDTAVYYCAASGYPIYHDDYWGQGTQVTVSS,low polyreactivity
3,QVQLVESGGGLVQAGGSLRLSCAASGGIFFINAMGWYRQAPGKERELVAAISISDGSTYYADSVKGRFTISRDNAKNTVYLQMNSLKPEDTAVYYCAAEGFDWDSPEMEYWGQGTQVTGSS,low polyreactivity
4,QVQLVESGGGLVQAGGSLRLSCAASGGIFFIYAMGWYRQAPGKERELVAAISWGGGSTYYADSVKGRFTISRDNAKNTFYLQMNSLKPEDTAVYYCAARLYGRGYYYWGQGTQVTVSS,high polyreactivity
5,QVQLVESGGGLVQAGGSLRLSCAASGGIFGKYVMGWYRQAPGKERELVAGISRSAGITYYADSVKGRFTISRDNAKHTVYLQMNSLIPEDTAVYYCNARAWSYPSYHVGYDYWGQGTQVTVSS,high polyreactivity
6,QVQLVESGGGLVQAGGSLRLSCAASGGIFGSYAMGWYRHAPGKERELVADITQSGGRTRYADSVKGRFTISRDNAKNTVYLQMNSLKPEDTAVYYCNAQDVDSGDDYDYWGQGTQVTVSS,low polyreactivity
7,QVQLVESGGGLVQAGGSLRLSCAASGGIFGSYAMGWYRQAPGKERELVAAISGGSTYYADSVKGRFTISRDNAKNTVYLQMNSLKPEDTAVYYCAAGWSVWYQDFDYWGQGTQVTVSS,high polyreactivity
8,QVQLVESGGGLVQAGGSLRLSCAASGGIFGVYAMVWYRQAPGKERELVAAISQSDTSTYYADSVKGRFTISRDNAKNTVYLQMNSLKPEDTAVYYCADEYYLDYYTWFDYWGQGTQVTVSS,high polyreactivity
9,QVQLVESGGGLVQAGGSLRLSCAASGGIFGYYAMGWYRQAPGKERELVAAISISGGRTYYADSVKGRFTISRDNAKNTVYLQMNSLKPEDTAVYYCKAARKVYVRGRGSEMDYWGQGTQVTVSS,low polyreactivity
10,QVQLVESGGGLVQAGGSLRLSCAASGGIFHPNDMGWYRQAPGKESELVAVIDSGDITNYADSVKGRFTISRDNAKNTVYLQMNSLKPEDTAVYYCAADSYSYFTDDHGYWGQGTQVTVSS,high polyreactivity
11,QVQLVESGGGLVQAGGSLRLSCAASGGIFHVYGMGWYRQAPGKERELVAAISYSGASTSYADSVKGRFTISRDNAKNTVYLQMNSLKPEDTAVYYCAAKVYYRRYRSGYDYWGQGTQVTVSS,high polyreactivity
12,QVQLVESGGGLVQAGGSLRLSCAASGGIFHYYAMGWYRQAPGKERELVAAISWNTGSTYYADSVKGRFTISRDNAKNTVYLQINSLKPEDTAVYYCAASSRRSYLPEGQGEYWGQGTQVTVSS,high polyreactivity
13,QVQLVESGGGLVQAGGSLRLSCAASGGIFIDYTMGWYRQAPGKERELVAAITRGGSTYYADSVKGRFTISRDNAKNTVYLQMNSLKPEDTAVYYCAARANTPVGHNRFGYWGQGTQVTVSS,low polyreactivity
14,QVQLVESGGGLVQAGGSLRLSCAASGGIFIGYAMGWYRQAPGKERELVAAISYSGGSTYYADSVKGRFTISRDNAKNTVYLQMNSLKPEDTAVYYCAAQVDRKYRWFNSWGQGTQVTVSS,high polyreactivity
15,QVQLVESGGGLVQAGGSLRLSCAASGGIFIRYAMGWYRQAPGKEREFVAAIRWRGTNTYYADSVKGRFTISRDNAKNTVYLQMNSLKPEDTAVYYCAARPYYITRYKGMDYWGQGTQVTVSS,high polyreactivity
16,QVQLVESGGGLVQAGGSLRLSCAASGGIFKAYAMGWYRQAPGKEREFFAAITSSGGRTSYADSVKGRFTISRDNAKNNVYLQKNSLKQEDTAVYYCAAYGDGIVNSWDSYSEMDYWGQGTQVTVSS,low polyreactivity
17,QVQLVESGGGLVQAGGSLRLSCAASGGIFKRNTMGWYRLAPGKERELVAAISRSGGSTYYADSVKGRFTISRDNAKNTVYLQMNSLKPEDTAVYYCARRFPYNYYVYGEDYWGQGTQVTVSS,high polyreactivity
18,QVQLVESGGGLVQAGGSLRLSCAASGGIFKRNTMGWYRQAPGKERELVAGISWTGGRTYYADSVKGRFTISRDNAKNTVYLHMNSLKPEDTAVYYCAAKPLQGVRRVEYWGQGTQVTVSS,high polyreactivity
19,QVQLVESGGGLVQAGGSLRLSCAASGGIFKVYGMRWYRQAPGKERELVAAISWTTGGTYYADSVKGRFTISRDNAKITVYLQMNSLKQEDTAVYYCAAEYADSWSAFDWNYYYWGQGTQVTVSS,high polyreactivity
20,QVQLVESGGGLVQAGGSLRLSCAASGGIFLVNDMGWYRPAPGKEWELVAAITSGGGTYYADSVKGRFTISRDNAKNTVYLQMNSLKPEDTAVYYCARDTYRQIVSNESYGYWGQGTQVTVSS,low polyreactivity
21,QVQLVESGGGLVQAGGSLRLSCAASGGIFNINAMGWYRQAPGKERELVASIRGSGGRTYYADSVKGRFTISRDNAKNTVYLQMNSLKPEDTAVYYCNAESYSTWSFGHRYEYDYWGQGTQVTVSS,low polyreactivity
